pIC50: −log10 of the molar value.

Our source for the IC50 values is the Immune Epitope Database (IEDB).

Assay [1] has as its target HLA-A*30:02. The assay is described as follows: IEDB peptide-MHC binding, cellular MHC/competitive/fluorescence; ≥ and ≤ were set here for values at or beyond the usual limits of such assays. As to conditions: source organism: Vaccinia virus WR.
Assay [2] addresses HLA-A*02:06. Described as above. The note with it: source organism: Vaccinia virus WR.
Assay [3] deals with HLA-A*02:01. The assay is described as above. The note with it: source organism: Vaccinia virus WR.
In the next assay the target is HLA-A*29:02. Described as above. As to conditions: source organism: Vaccinia virus WR.
Another assay has as its target HLA-A*26:01. Described as above. The note with it: source organism: Vaccinia virus WR.
The target in another assay is HLA-A*01:01. The assay is described as above. As to conditions: source organism: Vaccinia virus WR.
The target of assay [4] is HLA-A*24:02. The description is as above. As to conditions: source organism: Vaccinia virus WR.
The target in assay [5] is HLA-A*02:03. Described as above.
In assay [6] the target is HLA-A*02:02. The assay is described as above. The note with it: source organism: Vaccinia virus WR.
In assay [7] the target is HLA-A*68:02. The description is as above.
The target in assay [8] is HLA-A*23:01. The assay is described as above. As to conditions: source organism: Vaccinia virus WR.
Another assay concerns the target HLA-A*11:01. Described as above. As to conditions: source organism: Hepatitis B virus.
The target in assay [9] is HLA-A*02:06. The assay can be described thus: IEDB peptide-MHC binding, purified MHC/competitive/radioactivity; ≥ and ≤ were set here for values at or beyond the usual limits of such assays.
A further assay addresses HLA-A*31:01. Described as above. As to conditions: source organism: Hepatitis B virus.
In assay [10] the target is HLA-A*02:03. Described as above.
Assay [11] deals with HLA-A*02:02. Described as above.
The target in a further assay is HLA-A*03:01. The assay is described as above. As to conditions: source organism: Hepatitis B virus.
The target in assay [12] is HLA-A*68:01. The assay is described as above. As to conditions: source organism: Hepatitis B virus.
Assay [13] has as its target HLA-A*68:02. The assay is described as above.
Assay [14] deals with HLA-A*68:01. The assay is described as follows: IEDB peptide-MHC binding, cellular MHC/competitive/fluorescence; ≥ and ≤ were set here for values at or beyond the usual limits of such assays. As to conditions: source organism: Hepatitis B virus.
The target in assay [15] is HLA-A*02:01. The assay can be described thus: IEDB peptide-MHC binding, purified MHC/competitive/radioactivity; ≥ and ≤ were set here for values at or beyond the usual limits of such assays.
Assay [16] addresses HLA-A*30:02. The assay is described as above. The note with it: source organism: Vaccinia virus WR.
In assay [17] the target is HLA-A*24:02. The assay is described as above. The note with it: source organism: Vaccinia virus WR.
Assay [18] has as its target HLA-A*23:01. The description is as above. The note with it: source organism: Vaccinia virus WR.
Setting [19] is: source organism: Vaccinia virus WR.
[20] abbreviates: source organism: Hepatitis B virus.

LQDIVNEHDI: the negative logarithm of the IC50 (pIC50) – broadly, −log10 of the IC50, conventionally taken in molar units – with HLA-A*30:02 [1] is ≤ 4.15; with HLA-A*02:06 [2], 4.96; in the assay with HLA-A*02:01 [3], 4.63; with HLA-A*29:02, ≤ 4.15; in the assay with HLA-A*26:01, ≤ 4.15; in the assay with HLA-A*01:01 it was ≤ 4.15. The negative-log IC50 (pIC50) with HLA-A*24:02 [4] is ≤ 4.15; with HLA-A*02:03 [5] (setting [19]), 4.42; with HLA-A*02:02 [6], 5.12; with HLA-A*68:02 [7] (setting [19]) it was ≤ 4.15; in the assay with HLA-A*23:01 [8] it was ≤ 4.15.

On to FIIFLFILL, for which the pIC50 with HLA-A*11:01 was 5.05; with HLA-A*68:02 [7] (setting [20]), 5.00; in the assay with HLA-A*02:06 [9] (setting [20]) it was 6.05; with HLA-A*31:01 it was 6.35; with HLA-A*02:03 [10] (setting [20]) it was 5.98; in the assay with HLA-A*02:02 [11] (setting [20]), 6.20. In addition, the pIC50 with HLA-A*03:01 is 6.02; in the assay with HLA-A*68:01 [12], 5.49.

For the sequence SQAKKPEVRI, the pIC50 with HLA-A*30:02 [1] is ≤ 4.15; with HLA-A*02:06 [2] it was 5.23; with HLA-A*02:01 [3] it was 4.33; with HLA-A*29:02, ≤ 4.15; in the assay with HLA-A*26:01 it was ≤ 4.15; with HLA-A*01:01, ≤ 4.15. For the same sequence, the negative-log IC50 (pIC50) with HLA-A*24:02 [4] was 4.49; with HLA-A*02:02 [6] it was 4.97; with HLA-A*23:01 [8] it was 4.29; with HLA-A*02:03 [10] (setting [19]), 5.63; in the assay with HLA-A*68:02 [13] (setting [19]), 5.78.

In the case of CLIFLLVLL, the pIC50 with HLA-A*11:01 was 4.45; with HLA-A*68:02 [7] (setting [20]), 5.15; in the assay with HLA-A*68:01 [14], 4.46; with HLA-A*02:06 [9] (setting [20]), 5.98; with HLA-A*02:01 [15] (setting [20]), 7.00; in the assay with HLA-A*31:01 it was 6.00. In addition, the pIC50 with HLA-A*02:03 [10] (setting [20]) was 6.18; in the assay with HLA-A*02:02 [11] (setting [20]), 5.82; with HLA-A*03:01, 6.17.

Turning to EQRRSTIFDI, the pIC50 with HLA-A*30:02 [1] is ≤ 4.15; with HLA-A*02:06 [2], 4.59; with HLA-A*02:01 [3], 4.65; in the assay with HLA-A*29:02 it was ≤ 4.15; with HLA-A*26:01 it was ≤ 4.15; with HLA-A*01:01 it was 4.75. Further, the pIC50 in the assay with HLA-A*24:02 [4] was ≤ 4.15; in the assay with HLA-A*02:03 [5] (setting [19]), 4.94; in the assay with HLA-A*02:02 [6], 4.64; with HLA-A*23:01 [8], 4.29; with HLA-A*68:02 [13] (setting [19]), 5.99.

Turning to TQVKELGIAI, the pIC50 is ≤ 4.15 with HLA-A*30:02 [1]; ≤ 4.15 with HLA-A*29:02; 4.30 with HLA-A*26:01; ≤ 4.15 with HLA-A*01:01; ≤ 4.15 with HLA-A*24:02 [4]; 4.41 with HLA-A*23:01 [8]. For the same sequence, the pIC50 is 8.41 with HLA-A*02:06 [9] (setting [19]); 5.75 with HLA-A*02:01 [15] (setting [19]); 6.15 with HLA-A*02:03 [10] (setting [19]); 5.66 with HLA-A*02:02 [11] (setting [19]); 5.93 in the assay with HLA-A*68:02 [13] (setting [19]).

For AQQFCQYLI, the negative logarithm of the IC50 (pIC50) is 4.34 with HLA-A*29:02; 4.31 with HLA-A*26:01; 4.49 with HLA-A*01:01; 6.13 with HLA-A*30:02 [16]; 6.50 with HLA-A*24:02 [17]; 7.07 with HLA-A*23:01 [18].

Take VQSVLRDISI: the negative-log IC50 (pIC50) with HLA-A*30:02 [1] was 4.70; in the assay with HLA-A*29:02 it was ≤ 4.15; in the assay with HLA-A*26:01 it was 5.18; in the assay with HLA-A*01:01, 4.81; in the assay with HLA-A*24:02 [4], 4.60; with HLA-A*02:06 [9] (setting [19]), 6.88. For the same sequence, the negative-log IC50 (pIC50) with HLA-A*02:01 [15] (setting [19]) is 6.30; in the assay with HLA-A*02:03 [10] (setting [19]), 6.27; in the assay with HLA-A*02:02 [11] (setting [19]), 7.11; with HLA-A*68:02 [13] (setting [19]) it was 5.89; in the assay with HLA-A*23:01 [18], 5.46.

With FQESFYEDI, the pIC50 was ≤ 4.15 with HLA-A*30:02 [1]; 4.89 with HLA-A*02:01 [3]; 4.24 with HLA-A*29:02; ≤ 4.15 with HLA-A*26:01; ≤ 4.15 in the assay with HLA-A*01:01; 4.43 with HLA-A*68:02 [7] (setting [19]). In addition, the negative logarithm of the IC50 (pIC50) was 6.73 with HLA-A*02:06 [9] (setting [19]); 6.36 with HLA-A*24:02 [17]; 5.35 with HLA-A*02:03 [10] (setting [19]); 5.64 with HLA-A*02:02 [11] (setting [19]); 6.58 with HLA-A*23:01 [18].

With LLVPFVQWFV, the pIC50 was 5.09 with HLA-A*11:01; 4.98 with HLA-A*02:03 [5] (setting [20]); 4.34 in the assay with HLA-A*68:01 [14]; 6.79 with HLA-A*31:01; 9.77 in the assay with HLA-A*02:02 [11] (setting [20]); 7.17 with HLA-A*68:02 [13] (setting [20]). The pIC50 with HLA-A*03:01 was 6.32.
